The labels stand for the following.
B1: LICR-2-Ig (Fc fusion, murine)
chain: RPRLAPPQNVTLLSQNFSVYLTWLPGLGNPQDVTYFVAYQSSPTRRRWREVEECAGTKELLCSMMCLKKQDLYNKFKGRVRTVSPSSKSPWVESEYLDYLFEVEPAPPVLVLTQTEEILSANATYQLPPCMPPLDLKYEVAFWKEGAGNKTLFPVTPHVTPHGQPVQITLQPAASEHHCLSARTIYTFSVPKYSKFSKPTCFLLEVPEPRIPKPSTPPGSSCPPGNILGGPSVFIFPPKPKDALMISLTPKVTCVVVDVSEDDPDVHVSWFVDNKEVHTAWTQPREAQYNSTFRVVSALPIQHQDWMRGKEFKCKVNNKALPAPIERTISKPKGRAQTPQVYTIPPPREQMSKKKVSLTCLVTNFFSEAISVEWERNGELEQDYKNTPPILDSDGTYFLYSKLTVDTDSWLQGEIFTCSVVHEALHNHHTQKNLSRSPGK
notes: domain: hinge, and the CH2 and CH3 domains; Used as unpurified supernatant of transfected HEK293-EBNA cells
B2: IL-10R-Ig (Fc fusion, UniProt Q13651 22-235, looked up)
chain: HGTELPSPPSVWFEAEFFHHILHWTPIPNQSESTCYEVALLRYGIESWNSISNCSQTLSYDLTAVTLDLYHSNGYRARVRAVDGSRHSNWTVTNTRFSVDEVTLTVGSVNLEIHNGFILGKIQLPRPKMAPANDTYESIFSHFREYEIAIRKVPGNFTFTHKKVKHENFSLLTSGEVGEFCVQVKPSVASRSNKGMWSKEECISLTRQYFTVTN
notes: Control; Used as supernatant of cells transfected with IL-10R-Ig fusion cDNA; The construct is not described; also called IL-10R-Ig fusion; not shown: Ig part of the control fusion is not described
B3: recombinant AK155 (ligand, human, UniProt Q9NPH9 22-171, looked up)
chain: KHKQSSFTKSCYPRGTLSQAVDALYIKAAWLKATIPEDRIKNIRLLKKKTKKQFMKNCQFQEQLLSFFMEDVFGQLQLQGCKKIRFVEDFHSLRQKLSHCISCASSAREMKSITRMKRIFYRIGNKGIYKAISELDILLSWIKKLLESSQ
notes: Coated on the ELISA plate; The assay paragraph says only 'recombinant AK155'
B4: recombinant human IL-22 (ligand, UniProt Q9GZX6 34-179, looked up)
chain: APISSHCRLDKSNFQQPYITNRTFMLAKEASLADNNTDVRLIGEKLFHGVSMSERCYLMKQVLNFTLEEVLFPQSDRFQPYMQEVVPFLARLSNRLSTCHIEGDDLHIQRNVQKLKDTVKKLGESGEIKAIGELDLLFMSLRNACI
notes: also called IL-TIF

The target of assay [1] is T1, bovine serum albumin (bovine, UniProt P02769 25-607).
T1 construct: Control coating protein; also called BSA
The assay can be described thus: ELISA, plate coated with BSA, 50 µl supernatant, anti-murine Ig-peroxidase detection. Here is the method: (§1) Interaction analysis was carried out via ELISA. In brief, plates were coated with either recombinant AK155; Knappe, et al., J. Virol 74:3881-7 (2000), incorporated by reference, recombinant human IL-22, or 0.02 μg/ml of bovine serum albumin, and incubated with the test sample overnight at 4° C. The test substance, in all cases, was mixed in 20 mM Tris glycine buffer containing 30 mM NaCl, pH 9.2. After washing in PBS buffer plus Tween 20 (1×10⁻⁴ v/v), plates were blocked with PBS plus 1% BSA for 4 hours. 50 μl of supernatant derived from cells transfected with LICR-2 or with control supernatant referred to supra were added, and the plates were incubated for 2 hours, at 37° C. Bound LICR-2-Ig was detected using anti-murine Ig polyclonal antibodies coupled to peroxidase. The reaction was developed by adding 100 μl of TMB (1.25 mM), followed by 20 μl of H₂SO₄ (2M) to stop the reaction. Absorbance was measured at 450 nm.
On the technique in general: An ELISA detects its analyte on a solid surface through an enzyme-linked reagent.

The target of assay [2] is T1, bovine serum albumin. The assay can be described thus: ELISA, plate coated with BSA, 50 µl control supernatant, anti-murine Ig-peroxidase detection. Here is the method:
as §1

The target of assay [3] is B2. The assay can be described thus: ELISA, plate coated with recombinant AK155, 50 µl control supernatant, anti-murine Ig-peroxidase detection. How it is done: as §1
Assay [4] deals with B2. Nature of the assay: ELISA, plate coated with recombinant human IL-22, 50 µl control supernatant, anti-murine Ig-peroxidase detection. Here is the method:
as §1

For the assay “LICR-2-Ig”, the target named is B1. The assay can be described thus: ELISA, plate coated with recombinant human IL-22, 50 µl supernatant, anti-murine Ig-peroxidase detection. Here is the method: as §1

T1 sequence (P02769 25-607 limits assumed): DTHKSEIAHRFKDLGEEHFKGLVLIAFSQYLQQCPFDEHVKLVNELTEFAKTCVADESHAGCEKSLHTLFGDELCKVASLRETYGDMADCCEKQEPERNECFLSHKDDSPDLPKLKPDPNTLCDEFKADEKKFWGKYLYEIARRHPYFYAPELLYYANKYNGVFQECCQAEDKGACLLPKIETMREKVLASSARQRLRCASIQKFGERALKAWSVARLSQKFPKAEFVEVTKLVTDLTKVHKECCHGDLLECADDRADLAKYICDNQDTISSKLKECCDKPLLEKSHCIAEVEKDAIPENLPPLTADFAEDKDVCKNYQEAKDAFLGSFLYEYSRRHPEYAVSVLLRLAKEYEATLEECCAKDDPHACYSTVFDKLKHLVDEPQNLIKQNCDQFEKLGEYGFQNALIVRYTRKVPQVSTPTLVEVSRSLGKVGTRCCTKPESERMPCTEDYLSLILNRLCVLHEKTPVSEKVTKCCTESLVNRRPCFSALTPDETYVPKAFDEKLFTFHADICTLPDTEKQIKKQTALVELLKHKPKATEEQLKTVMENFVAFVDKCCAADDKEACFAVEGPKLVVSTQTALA

Take B1: the binding result in the assay with bovine serum albumin [1] was “no binding (tested: 0.02 µg/ml BSA (coating))”.
For the molecule B2, the binding result with bovine serum albumin [2] is reported as “no binding (tested: 0.02 µg/ml BSA (coating))”.
On to B3, for which, in the assay with IL-10R-Ig [3], the binding result is “no binding”.
For B4, the binding result with IL-10R-Ig [4] and in the assay with LICR-2-Ig was “no binding” throughout.

These data come from patent US20030158100A1 (LUDWIG INSTITUTE FOR CANCER RESEARCH, published 2003).
